Changes are numbered by the printed parent chain. Starred links: 1 amine or outer side, 2 acyl side, 3 side chain; linkers in the order of their positions; H or OH if unused. Non-standard residues stand in square brackets, D forms with d. Groups on a side chain read outwards from the residue. No end group written: not given here. *: point of attachment. C20 diacid = O=C(O)CCCCCCCCCCCCCCCCCCC(=O)*; γGlu = O=C(O)[C@H](CCC(=O)[*:2])N[*:1]; αMeL = CC(C)C[C@](C)(N)C(=O)O; AEEA = NCCOCCOCC(=O)O; Aib = CC(C)(N)C(=O)O
B1: Example 496 (peptide)
chain: YXQGTFTSDFSXXLDKKAQXAFIEXLLEGGPSSGAPPPGGS
modifications: synthetic construct; SITE 2: note = 2-Aminoisobutyric Acid; SITE 12: note = L-ornithine; SITE 13: note = alpha-methyl-leucine; SITE 17: note = Lysine is chemically modified through conjugation of the epsilon-amino group of the Lysine side chain with (2-[2-(2-Amino-ethoxy)-ethoxy]-acetyl)-(gamma-Glu)
B2: Example 454 (peptide)
chain: YXQGTXTSDXSILLDXIAQXAFIKYLEEGGPSSGAPPPS
modifications: synthetic construct; SITE 2: note = 2-Aminoisobutyric Acid; SITE 6: note = alpha-methyl-2-fluoro-L-phenylalanine; SITE 10: note = 3-(4-Pyridyl)-L-alanine; SITE 16: note = L-ornithine; SITE 20: note = 2-Aminoisobutyric Acid; SITE 24: note = Lysine is chemically modified through conjugation of the eps
B3: Example 455 (peptide)
chain: B2 chain with X10Y, L13X, X16K
modifications: synthetic construct; SITE 2: note = 2-Aminoisobutyric Acid; SITE 6: note = alpha-methyl-2-fluoro-L-phenylalanine; SITE 13: note = alpha-methyl-leucine; SITE 20: note = 2-Aminoisobutyric Acid; SITE 24: note = Lysine is chemically modified through conjugation of the epsilon-amino group of the Lysine s
B4: Example 650 (SEQ ID NO: 656) (peptide)
chain: YXQGTXTSDXSIXLDKKAQXXFIEYLAEGGPSSGEPPPEGSEE
modifications: synthetic construct; SITE 2: note = 2-Aminoisobutyric Acid; SITE 6: note = alpha-methyl-2-fluoro-L-phenylalanine; SITE 10: note = 3-(4-Pyridyl)-L-alanine; SITE 13: note = alpha-methyl-leucine; SITE 17: note = Lysine is chemically modified through conjugation of the epsilon-amino group of the Lysine
B5: Example 652 (SEQ ID NO: 658) (peptide)
chain: B4 chain with A27T
modifications: synthetic construct; SITE 2: note = 2-Aminoisobutyric Acid; SITE 6: note = alpha-methyl-2-fluoro-L-phenylalanine; SITE 10: note = 3-(4-Pyridyl)-L-alanine; SITE 13: note = alpha-methyl-leucine; SITE 17: note = Lysine is chemically modified through conjugation of the epsilon-amino group of the Lysine
B6: Example 651 (SEQ ID NO: 657) (peptide)
chain: B4 chain with A27S
modifications: synthetic construct; SITE 2: note = 2-Aminoisobutyric Acid; SITE 6: note = alpha-methyl-2-fluoro-L-phenylalanine; SITE 10: note = 3-(4-Pyridyl)-L-alanine; SITE 13: note = alpha-methyl-leucine; SITE 17: note = Lysine is chemically modified through conjugation of the epsilon-amino group of the Lysine
B7: Example 653 (SEQ ID NO: 659) (peptide)
chain: B4 chain with A27Q
modifications: synthetic construct; SITE 2: note = 2-Aminoisobutyric Acid; SITE 6: note = alpha-methyl-2-fluoro-L-phenylalanine; SITE 10: note = 3-(4-Pyridyl)-L-alanine; SITE 13: note = alpha-methyl-leucine; SITE 17: note = Lysine is chemically modified through conjugation of the epsilon-amino group of the Lysine

Each binder was assayed against hGLP-1R (Homo sapiens, UniProt P43220) (assay: cell-based or functional assay).
Chain of hGLP-1R (P43220 24-463): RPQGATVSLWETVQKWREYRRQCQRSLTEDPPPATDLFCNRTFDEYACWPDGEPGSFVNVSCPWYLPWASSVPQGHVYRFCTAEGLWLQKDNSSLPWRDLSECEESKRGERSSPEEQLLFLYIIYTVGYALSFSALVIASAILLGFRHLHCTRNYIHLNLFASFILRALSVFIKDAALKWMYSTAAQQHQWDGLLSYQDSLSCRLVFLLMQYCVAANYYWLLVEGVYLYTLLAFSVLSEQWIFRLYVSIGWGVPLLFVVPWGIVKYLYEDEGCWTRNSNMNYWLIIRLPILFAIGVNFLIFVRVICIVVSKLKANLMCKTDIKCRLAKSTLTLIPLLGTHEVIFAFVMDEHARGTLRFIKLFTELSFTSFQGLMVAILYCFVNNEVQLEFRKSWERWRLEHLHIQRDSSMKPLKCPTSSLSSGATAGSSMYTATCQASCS

Binder | Relative cAMP EC50 [nM] | cAMP Rel EC50 (1% HSA) [nM] | Relative cAMP EC50, nM (0.1% casein) [nM]
Y[Aib]QGTFTSDYSI[αMeL]LDKIAAK([AEEA-AEEA-γGlu-C20 diacid])QFVEYLIAGGPSSGEPPPSEG-NH2 [Example 312] | 2.66 | 589 | –
Y[Aib]QGTFTSDYSI[αMeL]LDKK([AEEA-γGlu-C20 diacid])AQRAFIEYLLEGGPSSGEPPPSG-NH2 (N-terminus assumed; SMILES CC[C@H](C)[C@H](NC(=O)[C@H](Cc1ccccc1)NC(=O)[C@H](C)NC(=O)[C@H](CCCNC(=N)N)NC(=O)[C@H](CCC(N)=O)NC(=O)[C@H](C)NC(=O)[C@H](CCCCNC(=O)COCCOCCNC(=O)CC[C@H](NC(=O)CCCCCCCCCCCCCCCCCCC(=O)O)C(=O)O)NC(=O)[C@H](CCCCN)NC(=O)[C@H](CC(=O)O)NC(=O)[C@H](CC(C)C)NC(=O)[C@](C)(CC(C)C)NC(=O)[C@@H](NC(=O)[C@H](CO)NC(=O)[C@H](Cc1ccc(O)cc1)NC(=O)[C@H](CC(=O)O)NC(=O)[C@H](CO)NC(=O)[C@@H](NC(=O)[C@H](Cc1ccccc1)NC(=O)[C@@H](NC(=O)CNC(=O)[C@H](CCC(N)=O)NC(=O)C(C)(C)NC(=O)[C@@H](N)Cc1ccc(O)cc1)[C@@H](C)O)[C@@H](C)O)[C@@H](C)CC)C(=O)N[C@@H](CCC(=O)O)C(=O)N[C@@H](Cc1ccc(O)cc1)C(=O)N[C@@H](CC(C)C)C(=O)N[C@@H](CC(C)C)C(=O)N[C@@H](CCC(=O)O)C(=O)NCC(=O)NCC(=O)N1CCC[C@H]1C(=O)N[C@@H](CO)C(=O)N[C@@H](CO)C(=O)NCC(=O)N[C@@H](CCC(=O)O)C(=O)N1CCC[C@H]1C(=O)N1CCC[C@H]1C(=O)N1CCC[C@H]1C(=O)N[C@@H](CO)C(=O)NCC(N)=O) [Example 313] | 0.304 | 135 | –
Y[Aib]QGTFTSDYSI[αMeL]LDKIAAK([AEEA-AEEA-γGlu-C20 diacid])QFVEWLLA[Aib]GPSSGEPPPSEG-NH2 [Example 324] | 4.4 | 1060 | –
B1 | – | – | 9.69
B2 | – | – | 0.821
B3 | – | – | 0.49
B4 | 0.649 | – | –
B5 | 0.426 | – | –
B6 | 1.02 | – | –
B7 | 0.426 | – | –
Y[Aib]QGTFTSDYSI[αMeL]LDKQAAK([AEEA-AEEA-γGlu-C20 diacid])AFVEWLLA[Aib]GPSSGEPPPSEG-NH2 [Example 317] | 1.32 | 234 | –

What follows are binders tested against T1, human GIP receptor (human) (UniProt P48546) (assay: cell-based or functional assay).
T1 sequence (looked up): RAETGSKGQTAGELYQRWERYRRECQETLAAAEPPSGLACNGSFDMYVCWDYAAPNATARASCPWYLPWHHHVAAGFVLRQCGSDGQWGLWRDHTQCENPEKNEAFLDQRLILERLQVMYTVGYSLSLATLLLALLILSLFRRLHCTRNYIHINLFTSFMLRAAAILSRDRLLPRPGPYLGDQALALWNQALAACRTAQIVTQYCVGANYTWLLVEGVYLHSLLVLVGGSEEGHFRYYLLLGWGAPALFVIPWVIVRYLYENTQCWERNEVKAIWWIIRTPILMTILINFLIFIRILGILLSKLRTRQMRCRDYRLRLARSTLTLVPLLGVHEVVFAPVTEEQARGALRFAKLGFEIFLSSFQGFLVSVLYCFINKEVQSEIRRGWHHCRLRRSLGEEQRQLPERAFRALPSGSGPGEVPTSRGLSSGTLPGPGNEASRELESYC

Binder | Relative cAMP EC50 [nM] | cAMP Rel EC50 (1% HSA) [nM] | Relative cAMP EC50, nM (0.1% casein) [nM]
Y[Aib]QGTFTSDYSI[αMeL]LDKIAAK([AEEA-AEEA-γGlu-C20 diacid])QFVEYLIAGGPSSGEPPPSEG-NH2 [Example 312] | 0.504 | 97.7 | –
Y[Aib]QGTFTSDYSI[αMeL]LDKK([AEEA-γGlu-C20 diacid])AQRAFIEYLLEGGPSSGEPPPSG-NH2 (N-terminus assumed; SMILES CC[C@H](C)[C@H](NC(=O)[C@H](Cc1ccccc1)NC(=O)[C@H](C)NC(=O)[C@H](CCCNC(=N)N)NC(=O)[C@H](CCC(N)=O)NC(=O)[C@H](C)NC(=O)[C@H](CCCCNC(=O)COCCOCCNC(=O)CC[C@H](NC(=O)CCCCCCCCCCCCCCCCCCC(=O)O)C(=O)O)NC(=O)[C@H](CCCCN)NC(=O)[C@H](CC(=O)O)NC(=O)[C@H](CC(C)C)NC(=O)[C@](C)(CC(C)C)NC(=O)[C@@H](NC(=O)[C@H](CO)NC(=O)[C@H](Cc1ccc(O)cc1)NC(=O)[C@H](CC(=O)O)NC(=O)[C@H](CO)NC(=O)[C@@H](NC(=O)[C@H](Cc1ccccc1)NC(=O)[C@@H](NC(=O)CNC(=O)[C@H](CCC(N)=O)NC(=O)C(C)(C)NC(=O)[C@@H](N)Cc1ccc(O)cc1)[C@@H](C)O)[C@@H](C)O)[C@@H](C)CC)C(=O)N[C@@H](CCC(=O)O)C(=O)N[C@@H](Cc1ccc(O)cc1)C(=O)N[C@@H](CC(C)C)C(=O)N[C@@H](CC(C)C)C(=O)N[C@@H](CCC(=O)O)C(=O)NCC(=O)NCC(=O)N1CCC[C@H]1C(=O)N[C@@H](CO)C(=O)N[C@@H](CO)C(=O)NCC(=O)N[C@@H](CCC(=O)O)C(=O)N1CCC[C@H]1C(=O)N1CCC[C@H]1C(=O)N1CCC[C@H]1C(=O)N[C@@H](CO)C(=O)NCC(N)=O) [Example 313] | 0.49 | 86.4 | –
Y[Aib]QGTFTSDYSI[αMeL]LDKIAAK([AEEA-AEEA-γGlu-C20 diacid])QFVEWLLA[Aib]GPSSGEPPPSEG-NH2 [Example 324] | 0.164 | 20.7 | –
B1 | – | – | 0.387
B2 | – | – | 0.0154
B3 | – | – | 0.0182
B4 | 0.0814 | – | –
B5 | 0.0342 | – | –
B6 | 0.112 | – | –
B7 | 0.0303 | – | –
Y[Aib]QGTFTSDYSI[αMeL]LDKQAAK([AEEA-AEEA-γGlu-C20 diacid])AFVEWLLA[Aib]GPSSGEPPPSEG-NH2 [Example 317] | 0.474 | 62.8 | –

Each binder was assayed against human glucagon receptor (human) (UniProt P47871) (assay: cell-based or functional assay).
Chain of human glucagon receptor (human) (P47871 26-477): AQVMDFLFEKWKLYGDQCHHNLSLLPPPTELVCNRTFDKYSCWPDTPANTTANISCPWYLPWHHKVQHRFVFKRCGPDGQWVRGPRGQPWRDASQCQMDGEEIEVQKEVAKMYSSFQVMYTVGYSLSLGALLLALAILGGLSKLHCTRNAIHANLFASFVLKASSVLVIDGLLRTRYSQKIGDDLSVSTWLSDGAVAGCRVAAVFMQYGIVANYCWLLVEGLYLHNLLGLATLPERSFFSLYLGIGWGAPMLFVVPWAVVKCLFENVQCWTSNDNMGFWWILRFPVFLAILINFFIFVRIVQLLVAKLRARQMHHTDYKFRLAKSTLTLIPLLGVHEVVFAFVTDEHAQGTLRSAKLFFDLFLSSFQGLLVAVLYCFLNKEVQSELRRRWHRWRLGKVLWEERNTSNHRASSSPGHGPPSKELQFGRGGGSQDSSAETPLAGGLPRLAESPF

Binder | Relative cAMP EC50 [nM] | cAMP Rel EC50 (1% HSA) [nM] | Relative cAMP EC50, nM (0.1% casein) [nM]
Y[Aib]QGTFTSDYSI[αMeL]LDKIAAK([AEEA-AEEA-γGlu-C20 diacid])QFVEYLIAGGPSSGEPPPSEG-NH2 [Example 312] | 7.5 | 4070 | –
Y[Aib]QGTFTSDYSI[αMeL]LDKK([AEEA-γGlu-C20 diacid])AQRAFIEYLLEGGPSSGEPPPSG-NH2 (N-terminus assumed; SMILES CC[C@H](C)[C@H](NC(=O)[C@H](Cc1ccccc1)NC(=O)[C@H](C)NC(=O)[C@H](CCCNC(=N)N)NC(=O)[C@H](CCC(N)=O)NC(=O)[C@H](C)NC(=O)[C@H](CCCCNC(=O)COCCOCCNC(=O)CC[C@H](NC(=O)CCCCCCCCCCCCCCCCCCC(=O)O)C(=O)O)NC(=O)[C@H](CCCCN)NC(=O)[C@H](CC(=O)O)NC(=O)[C@H](CC(C)C)NC(=O)[C@](C)(CC(C)C)NC(=O)[C@@H](NC(=O)[C@H](CO)NC(=O)[C@H](Cc1ccc(O)cc1)NC(=O)[C@H](CC(=O)O)NC(=O)[C@H](CO)NC(=O)[C@@H](NC(=O)[C@H](Cc1ccccc1)NC(=O)[C@@H](NC(=O)CNC(=O)[C@H](CCC(N)=O)NC(=O)C(C)(C)NC(=O)[C@@H](N)Cc1ccc(O)cc1)[C@@H](C)O)[C@@H](C)O)[C@@H](C)CC)C(=O)N[C@@H](CCC(=O)O)C(=O)N[C@@H](Cc1ccc(O)cc1)C(=O)N[C@@H](CC(C)C)C(=O)N[C@@H](CC(C)C)C(=O)N[C@@H](CCC(=O)O)C(=O)NCC(=O)NCC(=O)N1CCC[C@H]1C(=O)N[C@@H](CO)C(=O)N[C@@H](CO)C(=O)NCC(=O)N[C@@H](CCC(=O)O)C(=O)N1CCC[C@H]1C(=O)N1CCC[C@H]1C(=O)N1CCC[C@H]1C(=O)N[C@@H](CO)C(=O)NCC(N)=O) [Example 313] | 4.11 | 3290 | –
Y[Aib]QGTFTSDYSI[αMeL]LDKIAAK([AEEA-AEEA-γGlu-C20 diacid])QFVEWLLA[Aib]GPSSGEPPPSEG-NH2 [Example 324] | 5.74 | 1410 | –
B1 | – | – | 8.25
B2 | – | – | 9.11
B3 | – | – | 4.36
B4 | 16.2 | – | –
B5 | 15.3 | – | –
B6 | 10.7 | – | –
B7 | 7.29 | – | –
Y[Aib]QGTFTSDYSI[αMeL]LDKQAAK([AEEA-AEEA-γGlu-C20 diacid])AFVEWLLA[Aib]GPSSGEPPPSEG-NH2 [Example 317] | 2.42 | 1500 | –
